PMC7095019

Target: H1 A/New Caledonia/20/1999 haemagglutinin, wild-type trimeric protein (influenza A virus A/New Caledonia/20/1999 (H1N1)) (UniProt Q6WG00)
Assay: ELISA

| Substance | ELISA endpoint dilution titre [µg/mL] |
| --- | --- |
| CR6261 somatic (mature) antibody, somatic heavy and somatic light chain, soluble IgG | 0.00133 |
| CR6261 inferred germline antibody, germline heavy and germline light chain, soluble IgG | > 100 |
